In patent US20240299449A1 (University of California, published 2024):

What was measured:
[1] = target: T1, recombinant fusion protein comprised of the C-terminal extracellular domain of CD72 (aa 117-359) fused to a … (human, UniProt P21854 117-359, biotinylated (on the Fc domain; site not stated)); assay: on-yeast affinity measurement, flow cytometry, titration of CD72-Fc
T1 construct: range 117-359; Expressed in mammalian cells; CD72 is a type II protein, so the Fc may be N-terminal; also called CD72-Fc; CD72-ECD-Fc; not shown: human Fc domain
T1 sequence (looked up): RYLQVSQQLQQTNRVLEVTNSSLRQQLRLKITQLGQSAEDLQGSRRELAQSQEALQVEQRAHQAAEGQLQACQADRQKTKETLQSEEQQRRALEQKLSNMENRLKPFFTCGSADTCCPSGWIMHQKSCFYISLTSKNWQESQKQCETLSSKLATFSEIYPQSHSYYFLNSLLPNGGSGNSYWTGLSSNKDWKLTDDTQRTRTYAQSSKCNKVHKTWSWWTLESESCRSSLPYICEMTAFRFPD
Excerpt: FIG. 4a-e: Isolation of high-affinity CD72 nanobodies with yeast display (a) Schematic of workflow for in vitro anti-CD72 nanobody selection using yeast display. (b) Structure models of the recombinant Fc-fusion proteins used to perform yeast display selections. The Fc protein on the left was used to negatively select potential off-target nanobodies while the CD72-Fc protein (CD72 extracellular domain fused to a human Fc domain) was used to perform positive selection steps to isolate CD72-specific nanobodies (c) Schematic displaying the nanobody yeast display selection strategy for each MACS and FACS selection round to enrich for CD72-specific nanobody binders. Two rounds of MACS followed by four rounds of FACS with decreasing concentration of CD72 antigen produced high affinity anti-CD72 nanobodies. (d) On-yeast binding of recombinant CD72-Fc fusion protein for CD72-selected nanobodies Nb.B5 (nanobody sequence SEQ ID NO:2) and Nb.C2 (nanobody sequence SEQ ID NO:1) expressed on yeast to determine estimated binding affinities. Kd determined by curve fitting using non-linear least squares regression. (e) Flow cytometry plots of yeast clone Nb.C2 binding to 10 nM CD72-ECD-Fc protein (left) or 10 nM Fc protein (right). […]

[2] = target: T2, recombinant fusion protein comprised of the C-terminal extracellular domain of CD72 (aa 117-359) fused to a … (human, UniProt P21854 117-359, biotinylated (on the Fc domain; site not stated)); assay: on-yeast binding (yeast display titration)
T2 chain: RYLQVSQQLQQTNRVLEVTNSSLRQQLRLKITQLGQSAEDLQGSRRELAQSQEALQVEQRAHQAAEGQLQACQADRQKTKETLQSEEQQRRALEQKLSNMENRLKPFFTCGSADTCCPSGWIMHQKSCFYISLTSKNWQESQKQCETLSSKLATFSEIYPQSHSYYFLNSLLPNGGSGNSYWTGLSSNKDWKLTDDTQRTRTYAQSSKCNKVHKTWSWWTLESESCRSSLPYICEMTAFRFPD

| binding result [1] | Kd [2] | Binder |
| --- | --- | --- |
| binds | 1 nM | Nb.B5 (VHH) VHH: QVQLQESGGGLVQAGGSLRLSCAASGTIFPVDYMGWYRQAPGKERELVAGINYGSNTYYADSVKGRFTISRDNAKNTVYLQMNSLKPEDTAVYYCAAWQPEGYAVDFYHPYWGQGTQVTVSS |
| binds | 1.5 nM | Nb.C2 (VHH, display was detected with anti-HA-FITC; also called yeast clone Nb.C2) VHH: QVQLQESGGGLVQAGGSLRLSCAASGTIFDWYSMGWYRQAPGKERELVAGIDTGANTYYADSVKGRFTISRDNAKNTVYLQMNSLKPEDTAVYYCAAHDDGDPWHVYWGQGTQVTVSS |
